# Ends that are not written are not given here.
# Target: T1, MMP14 (Homo sapiens, UniProt P50281)
# Assay: In vitro cleavability of activatable antibodies, capillary electrophoresis
# Format: biochemical
# Conditions: 500 nM activatable antibody, 10 nM protease, 4 hours at 37° C.
row,Substance,Cleavability (%) 4h MMP14 [%]
1,"APMGLKH [CM 7046, also tested as internally quenched peptide probe]",95.3
2,GPYGLL [CM 7048],66.3

# Same assay, conditions: Tables 6A-6C; activatable antibody format
row,Substance,percent activation for MMP14
1,"APMGLKH [CM 7046, also tested as internally quenched peptide probe]",greater than 90%

# Target: recombinant EGFR (Homo sapiens, UniProt P00533)
# Assay: Solid-phase binding assay (ELISA) of anti-EGFR activatable antibodies
# Conditions: compared to activatable antibodies with control CM 2001
row,Substance,effect of CM on apparent masking efficiency
1,"APMGLKH [CM 7046, also tested as internally quenched peptide probe]",increasing the apparent masking efficiency

# Test system: H292 (human lung cancer-derived cell line) subcutaneous xenograft tumors
# Assay: In vivo efficacy in mouse H292 xenograft model
# Parameters: species or system nu/nu mice
# Conditions: 9 mg/kg intraperitoneally on day 1, H292 xenograft
# Procedure: In this study, H292 (human lung cancer-derived cell line) subcutaneous xenograft tumors in female nu/nu mice of 6-8 weeks of age were grown to an average volume of 95-247 mm^3. […] The mice were then randomized into groups of 8 mice each and each group was dosed intraperitoneally on day 1 with 9 mg/kg of the indicated test article.
row,Substance,"in vivo efficacy (mean tumor volume, FIG. 2A)"
1,"APMGLKH [CM 7046, also tested as internally quenched peptide probe]",comparable with the activatable antibody with the control CM 2001

# Test system: human bone marrow aspirates
# Assay: In situ stability in human bone marrow aspirates
# Format: in vitro ADME
# Conditions: 20 μg/mL, 37° C., 21 or 24 hours; normalized to CM 2001 cleavage
# Procedure: Fresh human bone marrow aspirates from healthy donors were purchased from Stemcell Technology Inc. (Catalog No. 70502) and AllCells Inc. and were processed to lyse red blood cells and washed 5 times with buffer or serum-free media. […] An equal volume of AF647-labeled c225 activatable antibodies prepared at 40 μg/mL in serum-free RPMI media were then added to form a mixture and incubated at a final concentration of 20 μg/mL at 37° C. for 21 or 24 hours. Cells were pelleted through centrifugation for 5 min at 300× g. Supernatants were collected from each incubated mixture and transferred into a well of a 96-well PCR plate for assay by capillary electrophoresis. Each supernatant sample was mixed with Pico Sample Buffer (Perkin Elmer) containing 2-beta-mercaptoethanol at four parts sample and one part of Pico Sample Buffer and then heated at 95° C. for 10 minutes. Substrate cleavage was measured by capillary electrophoresis using a LabChip GXII Touch system (Perkin Elmer) with the HT Pico Protein Express 100 protocol (Perkin Elmer). Protein Express Assay LabChips (Perkin Elmer #760499) were set up using the protocol of the Protein Pico Assay Reagent Kit (Perkin Elmer #760498).
row,Substance,in situ cleavage in human bone marrow aspirates (FIG. 3)
1,"APMGLKH [CM 7046, also tested as internally quenched peptide probe]",demonstrated a resistance to cleavage in situ in the bone marrow

# Target: T1, MMP14
# Assay: Internally quenched peptide probe cleavage assay (Example 8)
# Format: biochemical
# Conditions: 20 μM peptide probe, 20 nM protease, 37° C.
# Text: (§1) The study provided herein evaluated the cleavability kinetics (i.e., pM/s and kcat/KM (M^−1 s^−1) of CMs with matriptase (MT-SP1) and matrix metalloprotease (MMP) 2 (MMP2), MMP9, and MMP14. The CMs listed in Table 10 below were presented in an internally quenched peptide probe format, rather than included in an activatable antibody format. In the internally quenched probes, the CM sequence was positioned between a 7-methoxycoumarin-4-acetyl (MCA) fluorophore and a 2,4-dinitrophenyl (DNP) quencher such that cleavage of the CM sequence produced a fluorescence signal. The probes were of the following designs: (MCA)-Gly-Ser-X1-X2-Pro-X3-Gly-Leu-X4-X5-Gly-Ser-Lys (DNP)-D-Arg (SEQ ID NO: 178) where X1 is Arg or is absent, X2 is Ser or is absent, X3 is Met or Trp, X4 is Lys, Arg, or is absent, and X5 is Ser or is absent; (MCA)-Ser-X1-Pro-X2-Gly-Leu-X3-X4-Gly-Ser-Lys (DNP)-D-Arg (SEQ ID NO: 179) where X1 is Ala, X2 is Met, X3 is Lys, and X4 is His; and (MCA)-Gly-Ser-Pro-X1-Gly-Leu-X2-Gly-Gly-Ser-Lys (DNP)-D-Arg (SEQ ID NO: 180) where X1 is Met and X2 is Lys, as indicated in Table 10. The cleavage rates (pM/s) were measured using 20 μM internally quenched peptide probe and 20 nM MT-SP1, MMP2, MMP9, or MMP14. Cleavability kinetics (i.e., pM/s and kcat/KM (M^−1 s^−1)) were measured at 37° C. in 96- or 384-well plate format in the following buffers: 50 mM TRIS-HCl (pH 7.4), 150 mM NaCl, 0.05% Tween 20 for MT-SP1, 50 mM Tris-HCl (pH 7.5), 10 mM CaCl2, 150 mM NaCl, 0.05% (w/v) Brij-35 for MMP2 and MMP9, and 50 mM HEPES (pH 6.8), 10 mM CaCl2), 0.5 mM MgCl2, 0.05% (w/v) Brij-35 for MMP14. Cleavability kinetics were determined on an Infinite 200 PRO (Tecan) multimode plate reader using a fluorescence excitation wavelength of 320 nm and an emission wavelength of 405 nm.
row,Substance,Probe Cleavage (pM/s) MMP14 [pM/s]
1,"PMGLKS (also: internally quenched fluorophore/quencher probe, groups not placed) [CM 7018, tested as internally quenched peptide probe]",153000
2,"PMGLK (also: internally quenched fluorophore/quencher probe, groups not placed) [CM 7019, tested as internally quenched peptide probe]",5950
3,PWGLRS [tested as internally quenched peptide probe],4380
4,"APMGLKH [CM 7046, also tested as internally quenched peptide probe]",114000
5,RSPWGL [tested as internally quenched peptide probe],9580

# Target: T2, MMP2 (Homo sapiens, UniProt P08253)
# T2 sequence (P08253 110-660): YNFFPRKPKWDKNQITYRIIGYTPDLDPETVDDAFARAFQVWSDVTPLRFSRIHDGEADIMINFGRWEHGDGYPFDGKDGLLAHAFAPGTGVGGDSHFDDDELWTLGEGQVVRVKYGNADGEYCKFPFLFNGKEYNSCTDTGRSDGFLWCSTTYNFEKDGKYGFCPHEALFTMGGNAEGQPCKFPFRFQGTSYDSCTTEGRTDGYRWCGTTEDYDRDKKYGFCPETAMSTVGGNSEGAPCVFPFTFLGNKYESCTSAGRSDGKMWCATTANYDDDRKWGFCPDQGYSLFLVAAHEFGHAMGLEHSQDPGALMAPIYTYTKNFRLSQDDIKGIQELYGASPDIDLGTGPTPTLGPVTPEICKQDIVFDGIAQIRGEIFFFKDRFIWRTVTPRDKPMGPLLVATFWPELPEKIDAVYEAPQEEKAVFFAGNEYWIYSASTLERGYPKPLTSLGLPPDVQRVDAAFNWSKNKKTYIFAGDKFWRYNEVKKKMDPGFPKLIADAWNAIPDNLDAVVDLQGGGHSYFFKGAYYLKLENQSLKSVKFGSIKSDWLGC
# Assay: as above
# Format: biochemical
# Conditions: 20 μM peptide probe, 20 nM protease, 37° C.
# Text: as §1
row,Substance,Probe Cleavage (pM/s) MMP2 [pM/s]
1,"PMGLKS (also: internally quenched fluorophore/quencher probe, groups not placed) [CM 7018, tested as internally quenched peptide probe]",119000
2,"PMGLK (also: internally quenched fluorophore/quencher probe, groups not placed) [CM 7019, tested as internally quenched peptide probe]",4690
3,PWGLRS [tested as internally quenched peptide probe],3800
4,"APMGLKH [CM 7046, also tested as internally quenched peptide probe]",81700
5,RSPWGL [tested as internally quenched peptide probe],11700

# Target: T3, MMP9 (Homo sapiens, UniProt P14780)
# T3 sequence (P14780 107-707 limits assumed): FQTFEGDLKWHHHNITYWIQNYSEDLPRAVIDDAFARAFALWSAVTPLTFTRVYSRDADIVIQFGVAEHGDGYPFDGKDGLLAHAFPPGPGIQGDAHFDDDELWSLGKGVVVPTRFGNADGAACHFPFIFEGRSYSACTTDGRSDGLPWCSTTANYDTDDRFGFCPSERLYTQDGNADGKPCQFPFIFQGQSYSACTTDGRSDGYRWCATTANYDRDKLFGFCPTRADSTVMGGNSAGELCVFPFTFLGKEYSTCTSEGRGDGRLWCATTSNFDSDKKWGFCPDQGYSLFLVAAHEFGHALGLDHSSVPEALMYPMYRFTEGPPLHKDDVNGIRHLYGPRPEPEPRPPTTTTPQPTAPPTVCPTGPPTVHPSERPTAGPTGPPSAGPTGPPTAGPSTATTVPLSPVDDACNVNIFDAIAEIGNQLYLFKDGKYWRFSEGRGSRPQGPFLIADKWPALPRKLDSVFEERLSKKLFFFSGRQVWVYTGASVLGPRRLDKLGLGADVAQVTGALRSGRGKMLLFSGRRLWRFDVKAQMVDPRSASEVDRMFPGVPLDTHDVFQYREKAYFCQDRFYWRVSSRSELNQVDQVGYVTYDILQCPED
# Assay: as above
# Format: biochemical
# Conditions: 20 μM peptide probe, 20 nM protease, 37° C.
# Text: as §1
row,Substance,Probe Cleavage (pM/s) MMP9 [pM/s]
1,"PMGLKS (also: internally quenched fluorophore/quencher probe, groups not placed) [CM 7018, tested as internally quenched peptide probe]",133000
2,"PMGLK (also: internally quenched fluorophore/quencher probe, groups not placed) [CM 7019, tested as internally quenched peptide probe]",6080
3,PWGLRS [tested as internally quenched peptide probe],3830
4,"APMGLKH [CM 7046, also tested as internally quenched peptide probe]",115000
5,RSPWGL [tested as internally quenched peptide probe],25500

# Target: T4, MT-SP1 (Homo sapiens, UniProt Q9Y5Y6)
# T4 sequence (Q9Y5Y6 615-855 limits assumed): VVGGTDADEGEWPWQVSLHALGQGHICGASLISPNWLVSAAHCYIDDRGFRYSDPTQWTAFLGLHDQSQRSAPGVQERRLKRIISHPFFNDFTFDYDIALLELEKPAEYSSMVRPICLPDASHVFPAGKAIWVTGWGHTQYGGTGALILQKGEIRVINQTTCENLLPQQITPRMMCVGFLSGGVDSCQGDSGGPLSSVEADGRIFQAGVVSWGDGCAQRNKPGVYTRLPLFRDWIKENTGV
# Assay: as above
# Format: biochemical
# Conditions: 20 μM peptide probe, 20 nM protease, 37° C.
# Text: as §1
row,Substance,Probe Cleavage (pM/s) MT-SP1 [pM/s]
1,"PMGLKS (also: internally quenched fluorophore/quencher probe, groups not placed) [CM 7018, tested as internally quenched peptide probe]",14100
2,"PMGLK (also: internally quenched fluorophore/quencher probe, groups not placed) [CM 7019, tested as internally quenched peptide probe]",46.1
3,PWGLRS [tested as internally quenched peptide probe],1230
4,"APMGLKH [CM 7046, also tested as internally quenched peptide probe]",3330
5,RSPWGL [tested as internally quenched peptide probe],2390

# Test system: not given
# Assay: not given
# Conditions: mouse
row,Substance,in vivo stability versus control CMs
1,"APMGLKH [CM 7046, also tested as internally quenched peptide probe]",higher in vivo stability

# Target: T2, MMP2
# Assay: In vitro cleavability of activatable antibodies, capillary electrophoresis
# Format: biochemical
# Parameters: purchased R&D Systems 902-MP
# Conditions: 500 nM activatable antibody, 10 nM protease, 4 hours at 37° C.
row,Substance,Cleavability (%) 4h MMP2 [%]
1,"APMGLKH [CM 7046, also tested as internally quenched peptide probe]",95.7
2,GPYGLL [CM 7048],96.1

# Same assay, conditions: Tables 6A-6C; activatable antibody format
row,Substance,percent activation for MMP2
1,"APMGLKH [CM 7046, also tested as internally quenched peptide probe]",greater than 90%

# Target: T3, MMP9
# Assay: as above
# Format: biochemical
# Parameters: purchased R&D Systems 911-MP
# Conditions: 500 nM activatable antibody, 10 nM protease, 4 hours at 37° C.
row,Substance,Cleavability (%) 4h MMP9 [%]
1,"APMGLKH [CM 7046, also tested as internally quenched peptide probe]",45.1
2,GPYGLL [CM 7048],98.3

# Same assay, conditions: Tables 6A-6C; activatable antibody format
row,Substance,percent activation for MMP9
1,"APMGLKH [CM 7046, also tested as internally quenched peptide probe]",greater than 30%

# Target: T4, MT-SP1
# Assay: as above
# Format: biochemical
# Parameters: purchased R&D Systems 3946-SEB
# Conditions: not given
# Procedure: The studies provided herein evaluate the in vitro cleavability of activatable antibodies containing exemplary CMs that include a substrate cleavable by a matrix metalloprotease (MMP) and/or a substrate cleavable by a matriptase (MT-SP1).
# Each activatable antibody (500 nM) was incubated with 10 nM of the indicated single protease for 4 hours at 37° C. Human recombinant proteases were purchased from R&D Systems: MT-SP1 (catalog No: 3946-SEB), MMP2 (catalog No: 902-MP), MMP9 (catalog No: 911-MP), and MMP14 (catalog No: 918-MP). […] Protease concentrations were determined by active site titration. Activity assays were performed in the following buffers: 50 mM TRIS-HCl (pH 7.4), 150 mM NaCl, 0.05% Tween 20 for MT-SP1, 50 mM Tris-HCl, 10 mM CaCl2), 150 mM NaCl, 0.05% (w/v) Brij-35, pH 7.5 for MMP2 and MMP9, and 50 mM HEPES (pH 6.8), 10 mM CaCl2), 0.5 mM MgCl2 for MMP14. Following incubation, the presence of cleavage product was determined by capillary electrophoresis for each protease enzyme using a LabChip GXII Touch system (Perkin Elmer) with the HT Protein Express 100 protocol (Perkin Elmer). LabChip GXII Touch HT Chips (Perkin Elmer #760499) were set up using the protocol of the Protein Express Assay Reagent Kit (Perkin Elmer #CLS960008).
row,Substance,Cleavability (%) 4h MT-SP1 [%]
1,"APMGLKH [CM 7046, also tested as internally quenched peptide probe]",5.37
